# Data taken from publication PMC6340302 (ACS chemical biology, 2018).
# Like-named read-outs stand apart in the source and are kept apart here.
# Legend:
# dbOphMA [1] = biological target: T1, dbOphMA (Dendrothele bispora, UniProt A0A4S8L4Q5); experiment: microscale thermophoresis; assay type: binding
# T1 sequence (A0A4S8L4Q5 1-377): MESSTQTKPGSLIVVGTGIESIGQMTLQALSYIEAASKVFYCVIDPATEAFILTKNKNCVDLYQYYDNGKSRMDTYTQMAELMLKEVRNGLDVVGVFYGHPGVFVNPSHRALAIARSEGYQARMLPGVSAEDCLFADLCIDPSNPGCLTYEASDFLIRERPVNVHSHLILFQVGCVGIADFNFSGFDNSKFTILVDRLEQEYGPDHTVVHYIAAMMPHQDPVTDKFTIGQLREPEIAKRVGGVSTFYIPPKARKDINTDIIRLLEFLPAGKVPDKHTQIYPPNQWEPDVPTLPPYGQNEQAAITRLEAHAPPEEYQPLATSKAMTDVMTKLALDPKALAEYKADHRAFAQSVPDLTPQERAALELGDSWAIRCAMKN
# dbOphMA [2] = biological target: T1, dbOphMA; experiment: microscale thermophoresis; assay type: binding; remark: listed apart in the source
# [3] = biological target: dbOphM, the catalytic component of dbOphMA (Met1-Asn377), which lacks the precursor peptide (Dendrothele bispora CBS 962.96); experiment: crystal structure
# [4] = biological target: dbOphMA, methyltransferase-precursor fusion protein from Dendrothele bispora CBS 962.96, full-length fusion (residues Met1-Ala417) (Dendrothele bispora CBS 962.96)
# [5] = biological target: dbOphMA, methyltransferase-precursor fusion protein from Dendrothele bispora CBS 962.96, full-length fusion (residues Met1-Ala417) (Dendrothele bispora CBS 962.96); experiment: crystal structure
compound,measurement,setting,value
"Nc1ncnc2c1ncn2[C@@H]1O[C@H](CSCC[C@H](N)C(=O)O)[C@@H](O)[C@H]1O [SAH, S-adenosyl homocysteine]",Kd,dbOphMA [1],6.88 µM
"C[S@@+](CC[C@H](N)C(=O)O)C[C@H]1O[C@@H](n2cnc3c(N)ncnc32)[C@H](O)[C@@H]1O [SAM, S-adenosyl methionine]",Kd,dbOphMA [2],80.7 µM
"dbOphM, the catalytic component of dbOphMA (Met1-Asn377), which lacks the precursor peptide (domain or fragment)",stoichiometry N,[3],2
"dbOphMA, methyltransferase-precursor fusion protein from Dendrothele bispora CBS 962.96, full-length fusion (residues Met1-Ala417) (enzyme)",stoichiometry N,[4],2
same,stoichiometry N,[5],2
